According to patent publication US20160279261A1 (Genentech, published 2016):

Biological target: CD33 (UniProt P20138 18-364, limits assumed)
Assay: cell-based or functional assay

CD33, sequence (P20138 18-364 limits assumed): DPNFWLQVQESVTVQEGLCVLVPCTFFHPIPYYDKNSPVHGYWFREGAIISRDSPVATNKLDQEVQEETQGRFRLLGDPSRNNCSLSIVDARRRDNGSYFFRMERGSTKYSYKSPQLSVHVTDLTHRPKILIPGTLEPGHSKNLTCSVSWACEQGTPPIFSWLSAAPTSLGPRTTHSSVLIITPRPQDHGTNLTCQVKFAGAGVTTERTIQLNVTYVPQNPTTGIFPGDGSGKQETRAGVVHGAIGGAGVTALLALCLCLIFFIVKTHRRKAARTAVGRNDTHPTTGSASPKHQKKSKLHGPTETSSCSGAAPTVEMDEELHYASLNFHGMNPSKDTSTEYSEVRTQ

B1: CD33 CBI-PBD ADC2-2 (antibody, V domains shown)
VH: QVQLVQSGAEVKKPGSSVKVSCKASGGIFSNHAISWVRQAPGQGLEWMGGIIPIFGTANYAQKFQGRVTITADESTSTAFMELSSLRSEDTAVYYCAREWADVFDIWGQGTMVTVSS
VL: EIVLTQSPLSLPVTPGEPASISCRSSQSLLHSNGYNYLDWYLQKPGQSPQLLIYLGVNSVSGVPDRFSGSGSGTDFTLKISRVEAEDVGVYYCMQALQTPWTFGQGTKVEIK
  EOL-1 IC50 (in vitro cell proliferation assay): 0.37 µg/mL

B2: CD33 CBI-PBD ADC3-2 (antibody, V domains shown)
VH: QVQLVQSGAEVKKPGSSVKVSCKASGGIFSNHAISWVRQAPGQGLEWMGGIIPIFGTANYAQKFQGRVTITADESTSTAFMELSSLRSEDTAVYYCAREWADVFDIWGQGTMVTVSS
VL: EIVLTQSPLSLPVTPGEPASISCRSSQSLLHSNGYNYLDWYLQKPGQSPQLLIYLGVNSVSGVPDRFSGSGSGTDFTLKISRVEAEDVGVYYCMQALQTPWTFGQGTKVEIK
  EOL-1 IC50 (in vitro cell proliferation assay): 0.0181 µg/mL
